Data published in patent US20240084027A1 (BEIJING MABWORKS, published 2024).
Read-outs that look alike come from different tables or passages of the source. Each block holds one binder with its values, some of them ahead of it.

Key:
[1] = target: T1, human PD-L1 on HEK293A/human PD-L1 cells (human, UniProt Q9NZQ7 19-290); experiment: FACS on HEK293A/human PD-L1 cells
Experimental: (§1) The bispecific antibodies as prepared above were tested for their binding capability to cell surface human, monkey and mouse CD40 proteins by FACS, using the HEK293A cells prepared in Example 1 that stably expressed human, monkey or mouse CD40. Briefly, a 96-well plate was seeded with 10⁵ HEK293A cells in 50 μl PBS, and then added with 100 μl serially diluted anti-CD40 antibody 714VH2VL2 and the bispecific antibodies of the disclosure (starting concentration at 40 μg/ml). After incubation at 4° C. for 1 h, the plate was washed by PBST for 3 times. The plate was added with 1:500 diluted APC-goat anti-mouse IgG (Cat #:405308, BioLegen, USA), incubated at 4° for 1 h, washed with PBS for 3 times, and subjected to fluorescence measurement in a FACS machine (BD).
(§2) Following the protocols in Example 4 and Example 5, the bi- or multi-specific antibodies of the disclosure were tested for their binding capability to human PD-L1 and human CD40 proteins by FACS using the HEK293A cells prepared in Example 1 that stably expressed human PD-L1 or human CD40.

[2] = target: T2, human CD40 on HEK293A/human CD40 cells (human, UniProt P25942 21-277); experiment: FACS on HEK293A/human CD40 cells
T2 construct: also called HEK-Blue/CD40 cells
Experimental: as §1, §2

[3] = target: T2, human CD40 on HEK293A/human CD40 cells; experiment: FACS on HEK293A/human CD40 cells; remark: listed apart in the source
In short: (§3)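 Binding to HEK293A cells stably expressing human, monkey or mouse CD40, 10⁵ cells per well. Serially diluted antibodies (from 40 μg/ml) incubated 1 h at 4 °C. Detection with APC anti-mouse IgG, 1 h at 4 °C, then flow cytometry.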

[4] = target: monkey PD-L1 on HEK293A/monkey PD-L1 cells (monkey, UniProt Q9NZQ7 19-290 (human entry)); experiment: FACS on HEK293A/monkey PD-L1 cells
Chain of monkey PD-L1 on HEK293A/monkey PD-L1 cells (Q9NZQ7 other isoform, or with tags, fused parts or gaps limits assumed): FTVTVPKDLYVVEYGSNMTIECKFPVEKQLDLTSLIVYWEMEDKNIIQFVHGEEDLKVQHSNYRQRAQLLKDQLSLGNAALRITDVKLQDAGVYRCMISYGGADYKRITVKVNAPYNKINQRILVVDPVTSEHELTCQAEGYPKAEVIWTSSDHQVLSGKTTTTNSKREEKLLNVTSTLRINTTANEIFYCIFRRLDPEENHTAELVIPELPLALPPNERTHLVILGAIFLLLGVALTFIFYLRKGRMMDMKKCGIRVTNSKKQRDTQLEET
Experimental: as §1
(§4) Following the protocol of Example 4, the bispecific antibodies were tested for their binding capability to cell surface human, or monkey PD-L1 proteins by FACS, using the HEK293A cells prepared in Example 1 that stably expressed human or monkey […].

[5] = target: T3, mouse CD40 on HEK293A cells (mouse, UniProt P27512 20-289); experiment: FACS on HEK293A cells expressing mouse CD40
T3 sequence: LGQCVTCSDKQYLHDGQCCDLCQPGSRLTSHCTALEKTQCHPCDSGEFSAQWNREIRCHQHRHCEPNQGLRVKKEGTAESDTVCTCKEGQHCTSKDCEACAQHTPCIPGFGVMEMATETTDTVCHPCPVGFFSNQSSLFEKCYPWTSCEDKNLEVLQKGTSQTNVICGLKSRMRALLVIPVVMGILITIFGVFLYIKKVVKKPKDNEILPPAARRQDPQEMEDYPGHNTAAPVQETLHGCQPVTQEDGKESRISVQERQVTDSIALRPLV
Experimental: as §1

[6] = target: T1, human PD-L1 on HEK293A/human PD-L1 cells; experiment: FACS on HEK293A/human PD-L1 cells; remark: listed apart in the source
Experimental: as §1, §4

[7] = target: T1, human PD-L1 on HEK293A/human PD-L1 cells; experiment: FACS on HEK293A/human PD-L1 cells; remark: listed apart in the source
Experimental: as §1, §2

[8] = target: T4, monkey CD40 on HEK293A/monkey CD40 cells (monkey, UniProt P25942 21-277 (human entry)); experiment: FACS on HEK293A/monkey CD40 cells
T4 chain: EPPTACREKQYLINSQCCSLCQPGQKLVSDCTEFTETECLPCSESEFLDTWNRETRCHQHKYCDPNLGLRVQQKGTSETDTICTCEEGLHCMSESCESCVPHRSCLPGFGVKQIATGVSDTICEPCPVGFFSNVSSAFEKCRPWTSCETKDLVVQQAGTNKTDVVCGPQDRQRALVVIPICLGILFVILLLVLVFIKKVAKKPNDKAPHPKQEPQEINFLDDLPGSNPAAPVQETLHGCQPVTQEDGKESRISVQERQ
In short: as §3

[9] = target: T1, human PD-L1 on HEK293A/human PD-L1 cells; experiment: FACS blocking assay on HEK293A/human PD-L1 cells; blocked ligand PD-1-Fc
Experimental: (§5) The bispecific antibodies were tested for their blocking activity on PD-1-PD-L1 binding by FACS using the HEK293A cells stably expressing human PD-L1 molecules as prepared in Example 1. Briefly, a 96-well plate was seeded with 10⁵ HEK293A/human PD-L1 cells in 100 μl cell culture medium, and then added with 50 μl serially diluted anti-PD-L1 antibody 56E5VH5VL4 or MBS307-3 molecules. After incubation at 4° C. for 1 h. the plate was washed with PBST for 3 times, added with 100 μl 200 μg/ml PD-1-Fc fusion proteins (Cat #:10377-10211, Sino Biological, CN), incubated at 4° C. for 1 h, washed with PBST for 3 times, and added with 1:500 diluted PE-goat anti-human IgG (Cat #:PAI-86078, Thermofisher, USA). After incubation at 4° C. for 1 h, the plate was washed with PBST for 3 times and measured for fluorescence using a FACS machine (BD).
(§6) Following the protocol of Example 7, the bi- or multi-specific antibodies were tested for their capability to block PD-1-PD-L1 binding by FACS, using the HEK293A cells prepared in Example 1 that stably expressed human PD-L1 molecules.

[10] = target: T5, human CD40-his protein (human, UniProt P25942 21-193); experiment: SPR (BIAcore 8K), human CD40-his coupled to CM5 chip, antibody injected
T5 construct: Bought protein; also called human CD40 protein; CD40 molecules; not shown: his tag
Excerpt: (§7) Using BIAcore™ 8K instrument (GE Life Sciences, US), the binding affinity of the bi- or multi-specific antibodies to human CD40 and PD-L1 was quantitatively measured. Briefly, 100-200 response units (RU) of human CD40-his protein (Cat #:10774-1108H, Sino Biological, CN) or human PD-L1-his protein (Cat #:10084-H08H, Sino Biological, CN) were coupled to CM5 biosensor chips (Cat #:BR-1005-30, GE Life Sciences. USA). The un-reacted groups were then blocked with 1 M ethanolamine. Serially diluted antibodies at concentrations ranging from 0.3 μM to 10 μM were injected into the SPR running buffer (HBS-EP buffer, pH7.4, Cat #:BR-1006-69, GE Life Sciences, USA) at 30 μL/min. The binding affinity was calculated with the RUs of blank controls subtracted, and the association rate (kₐ) and dissociation rate (kd) were determined using the one-to-one Langmuir binding model (BIA Evaluation Software, GE Life Sciences, USA). The equilibrium dissociation constant KD was calculated as the kd/kₐ ratio.

[11] = target: T1, human PD-L1 on HEK293A/human PD-L1 cells; experiment: FACS blocking assay on HEK293A/human PD-L1 cells; blocked ligand PD-1-Fc; remark: listed apart in the source
Experimental: as §5

[12] = target: T2, human CD40 on HEK293A/human CD40 cells; experiment: cell-based or functional assay
[13] = target: T6, human PD-L1-his protein (human, UniProt Q9NZQ7 19-238); experiment: SPR (BIAcore 8K), human PD-L1-his coupled to CM5 chip, antibody injected
T6 construct: extracellular domain; also called human PD-L1 (ECD)-his; human PD-L1 protein; not shown: his tag
T6 sequence (Q9NZQ7 19-238): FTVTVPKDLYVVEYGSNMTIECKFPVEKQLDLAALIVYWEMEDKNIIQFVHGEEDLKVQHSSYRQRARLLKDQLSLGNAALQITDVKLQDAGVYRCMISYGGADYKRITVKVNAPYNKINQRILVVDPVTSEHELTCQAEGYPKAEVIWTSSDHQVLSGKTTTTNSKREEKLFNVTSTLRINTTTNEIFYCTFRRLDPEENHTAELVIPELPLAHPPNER
Excerpt: as §7

[14] = target: T2, human CD40 on HEK293A/human CD40 cells; experiment: cell-based or functional assay; remark: listed apart in the source
[15] = target: T1, human PD-L1 on HEK293A/human PD-L1 cells; experiment: FACS blocking assay on HEK293A/human PD-L1 cells; blocked ligand PD-1-Fc; remark: listed apart in the source
Experimental: as §5, §6

T1 sequence (Q9NZQ7 19-290 limits assumed): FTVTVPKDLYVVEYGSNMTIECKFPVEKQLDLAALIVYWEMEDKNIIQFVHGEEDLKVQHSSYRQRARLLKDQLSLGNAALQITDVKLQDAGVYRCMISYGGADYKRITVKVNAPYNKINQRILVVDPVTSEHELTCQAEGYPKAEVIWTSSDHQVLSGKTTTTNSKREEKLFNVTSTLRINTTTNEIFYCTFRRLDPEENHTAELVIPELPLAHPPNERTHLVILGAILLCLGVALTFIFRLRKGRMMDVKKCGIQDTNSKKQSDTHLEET

EC50 (read off the curve) [1]: ~0.2 µg/mL
EC50 (read off the curve) [2]: ~0.1 µg/mL
EC50 (read off the curve) [3]: ~0.1 µg/mL
EC50 (read off the curve) [4]: ~0.09 µg/mL
EC50 (read off the curve) [6]: ~0.1 µg/mL
EC50 (read off the curve) [7]: ~0.1 µg/mL
EC50 (read off the curve) [8]: ~0.1 µg/mL
IC50 (read off the curve) [9]: ~0.08 µg/mL
Kd [10]: 1420 pM
IC50 (read off the curve) [11]: ~0.1 µg/mL
EC50 (read off the curve); HEK-Blue/CD40 reporter, OD630, plate coated with human PD-L1-his [12]: ~0.1 µg/mL
Kd [13]: 321 pM
B1: MBS307-3 (bispecific antibody, human IgG1, kappa, L234A L235A)
heavy: QVQLQESGPGLVKPSDTLSLTCAVSGYSITTNYYWNWIRQPPGKGLEWMGYIKYDGSNNYNPSLKNRITISVDTSKNQFSLKLSSVTAVDTAVYYCARLDYWGQGTLVTVSSASTKGPSVFPLAPSSKSTSGGTAALGCLVKDYFPEPVTVSWNSGALTSGVHTFPAVLQSSGLYSLSSVVTVPSSSLGTQTYICNVNHKPSNTKVDKKVEPKSCDKTHTCPPCPAPEAAGGPSVFLFPPKPKDTLMISRTPEVTCVVVDVSHEDPEVKFNWYVDGVEVHNAKTKPREEQYNSTYRVVSVLTVLHQDWLNGKEYKCKVSNKALGAPIEKTISKAKGQPREPQVYTLPPSREEMTKNQVSLTCLVKGFYPSDIAVEWESNGQPENNYKTTPPVLDSDGSFFLYSKLTVDKSRWQQGNVFSCSVMHEALHNHYTQKSLSLSPGSGGGGSGGGGSQVQLQESGPGLVKPSQTLSLTCTVSGGSITSDYWNWIRQHPGNKLEYMGYISYTGSTYYNPSLKSRISITRDTSKNQFSLKLSSVTTADTAVYYCARYRDWDVRAMDYWGQGTTVTVSSGGGGSGGGGSGGGGSGGGGSDIVMTQSPDSLAVSLGEKVTMNCKSSQSLLISGNQKNFLTWYQQKPGQPPKLLIYWASTRESGVPDRFSGSGSGTDFTLTISSLQAEDEAVYYCQNDFGFPFTFGQGTKLTAK
light: DVVLTQSPLSLPVTLGQPASISCRSSQSLENSNGNTFLNWFQQRPGQSPRLLIYKVSNRFSGVPDRFSGSGSGTDFTLKISRVEAEDVGVYYCLQVTHVPFTFGQGTKLEIKRTVAAPSVFIFPPSDEQLKSGTASVVCLLNNFYPREAKVQWKVDNALQSGNSQESVTEQDSKDSTYSLSSTLTLSKADYEKHKVYACEVTHQGLSSPVTKSFNRGEC
notes: Symmetric: full-length anti-CD40 antibody with an anti-PD-L1 scFv (56E5VH5VL4) at the C terminus of each heavy chain
binding result [5]: no binding (tested: starting concentration at 40 µg/ml)

EC50 (read off the curve); HEK-Blue/CD40 reporter, OD630, plate coated with human PD-L1-his [14]: ~0.01 µg/mL
Kd [10]: 4370 pM
IC50 (read off the curve) [15]: ~0.01 µg/mL
Kd [13]: 69 pM
B2: MBS307-11 (bispecific antibody, human IgG1, kappa, L234A L235A)
heavy 1: QVQLQESGPGLVKPSDTLSLTCAVSGYSITTNYYWNWIRQPPGKGLEWMGYIKYDGSNNYNPSLKNRITISVDTSKNQFSLKLSSVTAVDTAVYYCARLDYWGQGTLVTVSSASTKGPSVFPLAPSSKSTSGGTAALGCLVKDYFPEPVTVSWNSGALTSGVHTFPAVLQSSGLYSLSSVVTVPSSSLGTQTYICNVNHKPSNTKVDKKVEPKSCDKTHTCPPCPAPEAAGGPSVFLFPPKPKDTLMISRTPEVTCVVVDVSHEDPEVKFNWYVDGVEVHNAKTKPREEQYNSTYRVVSVLTVLHQDWLNGKEYKCKVSNKALPAPIEKTISKAKGQPREPQVYTLPPSREEMTKNQVSLWCLVKGFYPSDIAVEWESNGQPENNYKTTPPVLDSDGSFFLYSKLTVDKSRWQQGNVFSCSVMHEALHNHYTQKSLSLSPGGGGGQVQLLESGGGLVQPGGSLRLSCAASGFAFSDYAMTWVRQAPGKGLEWVSTINSGGQSSSYLDSVKGRFTSSRDNSKNTLYLQMNSLRAEDTAVYYCAKGVYMPWKAPKGQGTLVTVSS
heavy 2: QVQLQESGPGLVKPSDTLSLTCAVSGYSITTNYYWNWIRQPPGKGLEWMGYIKYDGSNNYNPSLKNRITISVDTSKNQFSLKLSSVTAVDTAVYYCARLDYWGQGTLVTVSSASTKGPSVFPLAPSSKSTSGGTAALGCLVKDYFPEPVTVSWNSGALTSGVHTFPAVLQSSGLYSLSSVVTVPSSSLGTQTYICNVNHKPSNTKVDKKVEPKSCDKTHTCPPCPAPEAAGGPSVFLFPPKPKDTLMISRTPEVTCVVVDVSHEDPEVKFNWYVDGVEVHNAKTKPREEQYNSTYRVVSVLTVLHQDWLNGKEYKCKVSNKALPAPIEKTISKAKGQPREPQVYTLPPSREEMTKNQVSLSCAVKGFYPSDIAVEWESNGQPENNYKTTPPVLDSDGSFFLVSKLTVDKSRWQQGNVFSCSVMHEALHNHYTQKSLSLSPGGGGGQVQLVQSGAEVKKPGASVKVSCKASGYTFTDYHVNWVRQAPGQGLEWIGWIFPGSGRTFYTDKFKGRVTMTVDTSTSTVYMELSSLRSEDTAVYYCATDYGTSGYGLVYWGQGTTVTVSSGGGGSGGGGSGGGGSGGGGSDIQMTQSPSSLSASVGDRVTITCKASDRINNWLAWYQQKPGKAPKLLISGATSLETGVPSRFSGSGSGTDFTLTISSLQPEDEATYYCQQYWNIPFTFGQGTKLTAK
light: B1 light
notes: Asymmetric: knob chain with the anti-PD-L1 nanobody, hole chain with the 3C2VH6VL5 scFv; also called MBS307-11-1 + MBS307-11-2
